Results on 9 variants are retold here after the supplement of paper PMC7125110.

± gives the standard error. For some assays here: Variants at the floor of the assay were thinned out.

B1: glmS ribozyme (parent)
chain: AUAAAAGCGCCAGAACUACAGAAAUGUAGUUGACGAGGAGGAGGUUUAUCGAAUUUUCGGCGGAUGCCUCCAAA

Holding throughout (conditions): with glucosamine-6-phosphate
Data set [1] covers variants of B1. Kind of data set: kcat; higher = faster cleavage; RNA array. A digest of the protocol:
(§1)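 Using a hybridised Cy3 probe at 37 °C, barcoded ribozyme variants transcribed in situ by E. coli RNA polymerase on sequenced MiSeq chips were monitored across tiles imaged over ~14 h. The flow contained glucosamine-6-phosphate from 40 μM to 10 mM in HEPES/KCl/Mg(OAc)2 buffer. Signals were normalised to baseline and to non-cleaving reference variants before per-tile medians were fit to one- or two-exponential decays to yield kobs. Weighted Michaelis–Menten fits across concentrations gave kcat and KM.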

In data set [2] the parent is B1. Nature of the data set: KM; higher = weaker cofactor use; RNA array. The method in brief:
as §1

Data set [3] covers variants of B1. Kind of data set: self-cleavage kobs at 160 uM GlcN6P; higher = faster cleavage; RNA array. A digest of the protocol:
as §1

Variants of B1 are the subject of data set [4]. Kind of data set: self-cleavage kobs at 640 uM GlcN6P; higher = faster cleavage; RNA array. A digest of the protocol:
as §1

In data set [5] the parent is B1. Kind of data set: self-cleavage kobs at 2500 uM GlcN6P; higher = faster cleavage; RNA array. The method in brief: as §1
Data set [6] covers variants of B1. Nature of the data set: self-cleavage kobs at 10000 uM GlcN6P; higher = faster cleavage; RNA array. A digest of the protocol:
as §1

In data set [7] the parent is B1. Nature of the data set: self-cleavage kobs at 40 uM GlcN6P; higher = faster cleavage; RNA array. A digest of the protocol: as §1

As to AUAAAAGCGCCAGAACUACAGAAAUGUAGUAGACGAGGAGGAGGUUUAUCGGAUUUUCGGCGGAUGCCUCCAAA [U31A A52G], the kcat with glucosamine-6-phosphate [1] came out at 0.00103 ± 0.00022 s⁻¹. Moreover, the KM with glucosamine-6-phosphate [2] worked out at 4.62 ± 1.6 mM. In addition, in the data set with glucosamine-6-phosphate [3], the “self-cleavage kobs at 160 uM GlcN6P” value stood at 4.63e-05 ± 1.3e-05 s⁻¹. Moreover, the “self-cleavage kobs at 640 uM GlcN6P” value with glucosamine-6-phosphate [4] came out at 0.000142 ± 2.3e-05 s⁻¹. For the same variant, in the data set with glucosamine-6-phosphate [5], the “self-cleavage kobs at 2500 uM GlcN6P” value came to 0.000305 ± 4.3e-05 s⁻¹. For the same variant, in the data set with glucosamine-6-phosphate [6], the “self-cleavage kobs at 10000 uM GlcN6P” value was 0.000752 ± 7.9e-05 s⁻¹.
In the case of AUAAAAGUGCCAGAACUACAGAAAUGUAGUUGACGAGGAGGAGGUUUAUCGAAUUUUUGGCGGAUGCAUCCAAA [C8U C58U C68A], in the data set with glucosamine-6-phosphate [1], the kcat came to 2.49e-05 ± 7.3e-06 s⁻¹. Further, in the data set with glucosamine-6-phosphate [5], the “self-cleavage kobs at 2500 uM GlcN6P” value is < 1e-05 s⁻¹.
As to AUAAAAGCGCCAGAACUACAGAAAUGUAGUUAACGAGGAGUAGGUUUAUCGAAUUUUCGGCGGAUGCCUCCAAA [G32A G41U], in the data set with glucosamine-6-phosphate [1], the kcat is 0.000608 ± 0.00022 s⁻¹. Besides, in the data set with glucosamine-6-phosphate [4], the “self-cleavage kobs at 640 uM GlcN6P” value came to 5.48e-05 ± 9e-06 s⁻¹. Besides, the “self-cleavage kobs at 2500 uM GlcN6P” value with glucosamine-6-phosphate [5] turned out to be 0.000125 ± 2e-05 s⁻¹. Further, the “self-cleavage kobs at 10000 uM GlcN6P” value in the data set with glucosamine-6-phosphate [6] turned out to be 0.00037 ± 5.5e-05 s⁻¹.
Regarding AUAAAAGCGCCAGAACUACAGAAAUGUAGUUAACGAGGAGGAGGUUUAUCGAAUUCUCGGCGGAUGCCUCCAAA [G32A U56C], the turnover number (kcat) in the data set with glucosamine-6-phosphate [1] turned out to be 0.000235 ± 2.8e-05 s⁻¹. The KM with glucosamine-6-phosphate [2] amounted to 2.95 ± 0.67 mM. Besides, the “self-cleavage kobs at 640 uM GlcN6P” value with glucosamine-6-phosphate [4] turned out to be 4.72e-05 ± 1e-05 s⁻¹. The “self-cleavage kobs at 2500 uM GlcN6P” value with glucosamine-6-phosphate [5] was 9.95e-05 ± 1.6e-05 s⁻¹. Further, the “self-cleavage kobs at 10000 uM GlcN6P” value with glucosamine-6-phosphate [6] was found to be 0.000191 ± 3.1e-05 s⁻¹.
As for AUAAAAGCGUCAGAACUACAGAAAUGUAGUUUACGAGGAGGAGGUUUAUCGAAUUUUCGGCGGAUGCCUCCAAA [C10U G32U], the kcat with glucosamine-6-phosphate [1] is 4.97e-05 ± 3.1e-06 s⁻¹. Moreover, in the data set with glucosamine-6-phosphate [3], the “self-cleavage kobs at 160 uM GlcN6P” value was < 1e-05 s⁻¹. For the same variant, in the data set with glucosamine-6-phosphate [5], the “self-cleavage kobs at 2500 uM GlcN6P” value turned out to be 5.05e-05 ± 1.2e-05 s⁻¹. Moreover, in the data set with glucosamine-6-phosphate [6], the “self-cleavage kobs at 10000 uM GlcN6P” value was 4.67e-05 ± 6.1e-06 s⁻¹.
Turning to AUAAAAGCGCGAGAACUACAGAAAUGUAGUUGACGAGGAGGAGGUUUAUCAAAUUUUCGGCGGAUGCCUCCAAA [C11G G51A], the kcat with glucosamine-6-phosphate [1] was < 1e-05 s⁻¹. In addition, the KM in the data set with glucosamine-6-phosphate [2] worked out at 0.0306 ± 0.015 mM. The “self-cleavage kobs at 40 uM GlcN6P” value with glucosamine-6-phosphate [7] is < 1e-05 s⁻¹. Further, the “self-cleavage kobs at 10000 uM GlcN6P” value in the data set with glucosamine-6-phosphate [6] is < 1e-05 s⁻¹.
AUAAAAGCGCCAGAACUACAGAAAUGUAGUUGACGAGGAAGAGGUUUAUUGAACUUUCGGCGGAUGCUUCCAAA [G40A C50U U54C C68U]: the kcat with glucosamine-6-phosphate [1] is < 1e-05 s⁻¹. In addition, the “self-cleavage kobs at 40 uM GlcN6P” value with glucosamine-6-phosphate [7] was < 1e-05 s⁻¹. The “self-cleavage kobs at 160 uM GlcN6P” value in the data set with glucosamine-6-phosphate [3] is < 1e-05 s⁻¹. For the same variant, in the data set with glucosamine-6-phosphate [6], the “self-cleavage kobs at 10000 uM GlcN6P” value is < 1e-05 s⁻¹.
For AUAAAAGCGCCAGAACUACAGAAAUGUAGUUGACGAGGAGCAGGUUUAUCGACUUUUCGGCGGAUGCCUCCAAA [G41C A53C], the kcat with glucosamine-6-phosphate [1] came to 0.000159 ± 1.5e-05 s⁻¹. Further, the KM with glucosamine-6-phosphate [2] was found to be 3.66 ± 0.72 mM. The “self-cleavage kobs at 640 uM GlcN6P” value with glucosamine-6-phosphate [4] was determined as 1.93e-05 ± 9.5e-06 s⁻¹. Further, the “self-cleavage kobs at 2500 uM GlcN6P” value with glucosamine-6-phosphate [5] was determined as 6.77e-05 ± 9.6e-06 s⁻¹. For the same variant, the “self-cleavage kobs at 10000 uM GlcN6P” value with glucosamine-6-phosphate [6] amounted to 0.000115 ± 1.5e-05 s⁻¹.
AUAAAAGCGCCAGAACUACAGAAAUGUAGUUGACGAGGAGGAGGGUUAUCGAAUUUUCGGCGGAUGCCUACAAA [U45G C70A]: the kcat with glucosamine-6-phosphate [1] was found to be 0.000251 ± 5.4e-05 s⁻¹. In the data set with glucosamine-6-phosphate [4], the “self-cleavage kobs at 640 uM GlcN6P” value was 0.000111 ± 2.5e-05 s⁻¹. In addition, in the data set with glucosamine-6-phosphate [5], the “self-cleavage kobs at 2500 uM GlcN6P” value is 0.000364 ± 0.00011 s⁻¹. Moreover, in the data set with glucosamine-6-phosphate [6], the “self-cleavage kobs at 10000 uM GlcN6P” value was 0.000215 ± 4.3e-05 s⁻¹.
